Measured values as given in the supplement of paper PMC9732359.
± gives the uncertainty stated by the source.

Assay: protein stability index of a GFP-peptide fusion (yeast GPS) (PSI 1-4); higher = more stable; sorted into four equal gates, so the index is relative within each strain
Procedure, shortened: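 Yeast carrying a pooled library were grown to mid-log phase in leucine-free medium. Each library plasmid expresses Cherry and has a tiled 17-residue yeast protein peptide fused downstream of GFP. Cells were sorted into four equal gates by GFP/Cherry ratio, and plasmids from each gate were PCR-amplified, Illumina-sequenced and assigned to strains by barcode. Summing, across gates, the read frequency times the gate number gave each peptide's protein stability index.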

Sequence | protein stability index (doa10∆) | protein stability index (pdr5∆) | protein stability index (san1∆) | protein stability index (ubr1∆)
NTTVISDKQRRLLAKDA [DIS3] | 2.37 ± 0.051 | 2.23 ± 0.045 | 2.06 ± 0.066 | 2.18 ± 0.045
LFRIFSMSEEFKYVSVR [BRR2] | 2.39 ± 0.14 | 3.18 ± 0.15 | 2.99 ± 0.18 | 3.29 ± 0.12
VSLTKRKQEREITSLRQ [YIL149C/MLP2] | 2.03 ± 0.2 | 2.32 ± 0.14 | 2.45 ± 0.14 | 2.35 ± 0.071
VMYNGHTGKKLMAQIFF [RPB2] |  | 2.31 ± 0.16 | 3.08 ± 0.14 | 1.27 ± 0.045
TADKIRIHAKNFEAALF [GAL11] | 2.13 ± 0.068 | 2.05 ± 0.065 | 1.51 ± 0.11 | 2.29 ± 0.055
SYVEPVLVASAKGLQTV [RPL31A] | 2.2 ± 0.059 | 2.33 ± 0.08 | 2.23 ± 0.065 | 2.22 ± 0.082
LAVSTILGKNFDSVIVE [SMC1] | 2.86 ± 0.066 | 2.59 ± 0.064 | 2.44 ± 0.056 | 2.45 ± 0.047
PIKADKDYSQILKEEFP [RPN5] | 3 ± 0.1 | 2.46 ± 0.079 | 2.18 ± 0.13 | 2.69 ± 0.062
ELEEQESESERKYDLFQ [SMC2] | 3.32 ± 0.16 | 3.28 ± 0.11 | 3.31 ± 0.068 | 3.29 ± 0.094
NNSTSNANTVFSERAAM [SWI1] | 2.63 ± 0.06 | 3.27 ± 0.097 | 2.97 ± 0.062 | 3.24 ± 0.089
PGSVEEVDKSKLITTYI [YDL116W/NUP84] | 3.39 ± 0.18 | 3.33 ± 0.26 |  | 3.42 ± 0.18
TAETNNKVHETSSKSSS [YDL088C/ASM4] | 2.86 ± 0.039 | 2.96 ± 0.045 | 2.84 ± 0.039 | 2.89 ± 0.032
TTLHGPGFQLPNRITLT [SRB8] | 2.9 ± 0.099 | 2.84 ± 0.1 | 2.74 ± 0.068 | 2.89 ± 0.061
KASVLEISPQDSIASVL [GAL11] | 3.27 ± 0.09 | 3.39 ± 0.066 | 3.13 ± 0.083 | 3.13 ± 0.086
ANVDQISFLEPINLKFL [YMR129W/POM152] | 2.75 ± 0.057 | 2.89 ± 0.077 | 2.92 ± 0.054 | 2.91 ± 0.048
SFNMAQIPQQLYQSLTP [SNF5] | 2.16 ± 0.067 | 2.35 ± 0.072 | 2.14 ± 0.054 | 2.12 ± 0.047
LVDLKKELAELKVQKLS [RPL35A] | 1.2 ± 0.066 | 1.59 ± 0.097 | 1.46 ± 0.12 | 1.68 ± 0.085
ESAFENLMGNRNNHNSN [SNF12] |  |  |  | 3.44 ± 0.21
LDPLTKDPVDFVRQAAM [RPN2] | 3.39 ± 0.12 | 3.53 ± 0.14 | 3.17 ± 0.2 | 2.85 ± 0.25
DVAFADGGKTLRACAAN [YMR129W/POM152] | 1.54 ± 0.18 | 2.6 ± 0.19 |  | 2.36 ± 0.1
DYLTLNKVVVNLNDAGL [RPN2] | 2.73 ± 0.091 | 3.02 ± 0.08 |  | 3.16 ± 0.06
DSDGTRLKGDIFCVGSG [PRE2] | 2.88 ± 0.057 | 2.87 ± 0.057 | 2.93 ± 0.091 | 2.45 ± 0.061
IIRPILGKVRFANYKLL [SRB4] | 1.44 ± 0.045 | 1.75 ± 0.043 | 1.14 ± 0.1 | 1.73 ± 0.057
HEYIRHLALEIGEVYND [RPN1] | 2.29 ± 0.065 | 2.09 ± 0.067 | 2.49 ± 0.11 | 1.54 ± 0.077
ADNSGARNLYIIAVKGS [RPL23A] | 1.55 ± 0.049 | 1.63 ± 0.055 | 1.33 ± 0.11 | 1.53 ± 0.057

Sequence | protein stability index (doa10∆) | protein stability index (pdr5∆) | protein stability index (san1∆) | protein stability index (ubr1∆)
TSPIDIREKVAKQALDL [SNF2] | 3.28 ± 0.14 | 3.17 ± 0.19 | 2.81 ± 0.13 | 2.69 ± 0.15
ERHGYIRGIVKQIVHDS [RPL2A] | 1.6 ± 0.051 | 1.84 ± 0.072 | 1.92 ± 0.062 | 1.79 ± 0.05
GGPWFTDGELDIEFINS [RPC34] | 3.14 ± 0.15 | 3.42 ± 0.12 | 2.55 ± 0.21 | 3.17 ± 0.081
FEVLAPKWERVFLFDIE [RRI2] | 3.41 ± 0.12 | 2.72 ± 0.085 | 2.92 ± 0.1 | 2.52 ± 0.068
GTAIGAIGAQSIGEPGT [RPO31] | 3.12 ± 0.11 | 3.13 ± 0.092 | 2.61 ± 0.14 | 3.15 ± 0.059
KAAFLGSEVRLRDDTLP [COR1] | 2.54 ± 0.06 | 2.98 ± 0.057 | 2.93 ± 0.061 | 2.68 ± 0.05
LRNLHMKRMVAQWERSK [SNF12] | 2.88 ± 0.076 | 2.89 ± 0.1 | 2.89 ± 0.067 | 2.88 ± 0.086
PDDMVEINSVGNPGLPQ [ITC1] | 2.85 ± 0.086 | 3.26 ± 0.04 | 3.05 ± 0.072 | 3.09 ± 0.06
MNQSSIDRGLFRSLFFR [RPB2] | 3.16 ± 0.16 | 2.97 ± 0.2 | 2.63 ± 0.26 | 2.94 ± 0.08
QGIVRVYSKQATFLLTD [MCD1] | 1.97 ± 0.038 | 2.29 ± 0.047 | 2.35 ± 0.049 | 2.03 ± 0.037
KGNVGFVFTNEPLTEIK [RPP0] | 3.56 ± 0.18 | 3.06 ± 0.1 | 2.06 ± 0.21 | 3.58 ± 0.2
FMHDPSVFYNIANMVLP [SIR2] | 2 ± 0.05 | 2.03 ± 0.04 | 1.85 ± 0.054 | 1.7 ± 0.036
NGTLIGCVSYSPAALKQ [YMR153W/NUP53] | 1.85 ± 0.06 | 2.27 ± 0.086 | 1.83 ± 0.097 | 2.26 ± 0.045
GYDKSGAHLLEFQPSGN [PRE5] | 2.68 ± 0.25 | 3.22 ± 0.18 | 2.79 ± 0.21 | 
PSQSEEQKGQMAKKEGT [MED4] | 3.21 ± 0.2 | 3 ± 0.22 | 3.07 ± 0.19 | 
KLDIISDPESERPAIEF [RPN14] | 2.94 ± 0.045 | 3.05 ± 0.05 | 3.03 ± 0.04 | 3.18 ± 0.039
PKMQWSLQDNSAAINNE [RPN4] | 3.15 ± 0.063 | 3.2 ± 0.053 | 2.96 ± 0.048 | 3.15 ± 0.041
SMKANTSTNPNGLGTSH [ARP7] | 3.22 ± 0.093 | 3.41 ± 0.098 | 2.95 ± 0.078 | 3.27 ± 0.075
LLRLASKSTSMKLSMPP [POP1] | 2.75 ± 0.064 | 2.76 ± 0.065 | 2.69 ± 0.059 | 2.81 ± 0.049
VKLIVMLCTLTGYQNND [YJL039C/NUP192] | 1.89 ± 0.12 | 1.25 ± 0.078 | 1.29 ± 0.17 | 1.25 ± 0.098
DNKMDSVKEDVKNNQEL [SMC4] | 2.85 ± 0.14 | 3.02 ± 0.084 | 2.51 ± 0.17 | 3.36 ± 0.14
ALNMLPSEILHLILDKL [GRR1] | 2.37 ± 0.13 | 2.07 ± 0.073 | 1.95 ± 0.13 | 2.03 ± 0.045
SKSVPTPSLPIAPPVAP [SNF5] | 2.74 ± 0.057 | 2.81 ± 0.061 | 3.1 ± 0.045 | 2.55 ± 0.061
EGRSFTKAIEDAKKEMK [YLR335W/NUP2] | 2.87 ± 0.066 | 2.7 ± 0.062 | 2.83 ± 0.06 | 2.59 ± 0.081
KAKIIPGNGKHASENIS [SIR4] | 2.61 ± 0.11 | 3.04 ± 0.13 | 2.67 ± 0.13 | 2.81 ± 0.12
